The target in data set [1] is batCOV5-N3 [change] (residues 391-427 of batCOV5 N protein) fused to C-terminal GFP-His10 (Pipistrellus bat coronavirus HKU5). Kind of data set: MST. As to conditions: both partners purified.
The target is the same in data set [2]. Kind of data set: MST. As to conditions: both partners purified. This is another data set of the same source.
For data set [3] the target is unchanged. Kind of data set: MST. The settings on record: both partners purified. This is another data set of the same source.
The target is the same in data set [4]. Kind of data set: MST. As to conditions: both partners purified. This is another data set of the same source.
The data set “cross-linking” deals with the molecule itself. Kind of data set: cross-linking.
Data set [5] addresses batCOV5-N3 (residues 391-427) with C-terminal GFP-His10 (MST) (Pipistrellus bat coronavirus HKU5, UniProt A3EXD7 391-427). Kind of data set: MST. As to conditions: both partners purified.

Values joined by “and” are separate entries in the source; they are usually repeats but may differ in a detail not shown here. Identical values can stand only once.

Broadly, the Kd is the free concentration of one partner at which half of the binding sites on the other are occupied at equilibrium, for simple one-to-one binding. Low readings indicate a tighter complex, high ones a looser complex. Broadly, the stoichiometry N is a count of units in the complex or per binding partner.

B1: M protein of Pipistrellus bat coronavirus HKU5 (batCOV5-M), wild type (natural protein)
chain: MASSNVTLSNDEVLRLVKDWNFTWSVVFLLITIVLQYGYPSRSMFVYVIKMFVLWLLWPASMALSIFCAVYPIDLASQIISGILAATSCAMWISYFVQSIRLFMRTGSWWSFNPESNCLLNVPIGGTTVVRPLVEDSTSVTAVVTDGYLKMAGMHFGACDFQRLPSEVTVAKPNVLIALKMIKRQAYGTNSGVAIYHRYKAGNYRRPPIIQDQELALLRA
In the case of B1, the Kd in data set [1] was 3.5 µM; in data set [2], 3.07 µM; in data set [3], 4.83 µM; in data set [4], 1.9 µM. In “cross-linking”, the “stoichiometry N” value is 4 and 6.

B2: batCOV5-M, M protein of Pipistrellus bat coronavirus HKU5, affinity- and SEC-purified (cross-linking, MST) (natural protein)
chain: MASSNVTLSNDEVLRLVKDWNFTWSVVFLLITIVLQYGYPSRSMFVYVIKMFVLWLLWPASMALSIFCAVYPIDLASQIISGILAATSCAMWISYFVQSIRLFMRTGSWWSFNPESNCLLNVPIGGTTVVRPLVEDSTSVTAVVTDGYLKMAGMHFGACDFQRLPSEVTVAKPNVLIALKMIKRQAYGTNSGVAIYHRYKAGNYRRPPIIQDQELALLRA
B2: in data set [5], the dissociation constant Kd was 0.77 µM.

Values taken from article PMC9982069 (PNAS Nexus, 2023).
